The values below come from the RNAGym collection of RNA variant scans (doi:10.7554/elife.80360).

To fix the notation:
B1: CPEB3 Ribozyme (parent)
chain: GGGGGCCACAGCAGAAGCGUUCACGUCGCGGCCCCUGUCAGAUUCUGGUGAAUCUGCGAAUUCUGCUGU

The variants in the data set derive from B1. Kind of data set: self-cleavage, relative activity (ratio to wild type); higher = more cleavage; co-transcriptional.
Consider GGGGGCCACAGCAGACGCGUUCACGUCGCGGCCCCUGUCAGAUUCUGCUGAAUCUGCGAAUUCUGCUGU [A16C G48C], for which the self-cleavage came to 0.409. The figure for GGGGGCCACAGCAGACGCGUUCACGUCGCGACCCCUGUCAGAUUCUGGUGAAUCUGCGAAUUCUGCUGU [A16C G31A] is 0.0686. The value for GGGGGCCACAGCAGACGCGUUCACGUCGCGCCCCCUGUCAGAUUCUGGUGAAUCUGCGAAUUCUGCUGU [A16C G31C] was 0.113; that for GGGGGCCACAGCAGACGCGUUCACGUCGCGUCCCCUGUCAGAUUCUGGUGAAUCUGCGAAUUCUGCUGU [A16C G31U] was 0.124. The figure for GGGGGCCACAGCAGAGGCGUUCACGUGGCGGCCCCUGUCAGAUUCUGGUGAAUCUGCGAAUUCUGCUGU [A16G C27G] is 0.102. As to GGGGGCCACAGCAGAGGCGUUCACGUUGCGGCCCCUGUCAGAUUCUGGUGAAUCUGCGAAUUCUGCUGU [A16G C27U], the self-cleavage turned out to be 0.228. The figure for GGGGGCCACAGCAGAGGCGUUCACGUAGCGGCCCCUGUCAGAUUCUGGUGAAUCUGCGAAUUCUGCUGU [A16G C27A] is 0.481; for GGGGGCCACAGCAGAGGCGUUCACGUCGCGGCCCCUGUCAGAUUCUGGUGAAUGUGCGAAUUCUGCUGU [A16G C54G] it is 0.581.

In the case of GGGGGCCACAGCAGAGGCGUUCACGUCGCGGCCCCUGUCAGAUUCUGGUGAAUAUGCGAAUUCUGCUGU [A16G C54A], the self-cleavage was 0.413. For the variant GGGGGCCACAGCAGAGGCGUUAACGUCGCGGCCCCUGUCAGAUUCUGGUGAAUCUGCGAAUUCUGCUGU [A16G C22A], the self-cleavage stood at 0.167. The figure for GGGGGCCACAGCAGAGGCGUUUACGUCGCGGCCCCUGUCAGAUUCUGGUGAAUCUGCGAAUUCUGCUGU [A16G C22U] is 0.156. In the case of GGGGGCCACAGCAGACGCGUUCACGUCGCGGCCACUGUCAGAUUCUGGUGAAUCUGCGAAUUCUGCUGU [A16C C34A], the self-cleavage was 0.165.

In the case of GGGGGCCACAGCAGACGCGUUCACGUCGCGGCCCCUGUCAGAUUCUGGUGAAACUGCGAAUUCUGCUGU [A16C U53A], the self-cleavage stood at 0.16. As for GGGGGCCACAGCAGAGGCGUUCACGUCGCGGCCCCUGUCGGAUUCUGGUGAAUCUGCGAAUUCUGCUGU [A16G A40G], the self-cleavage came to 0.788.

Turning to GGGGGCCACAGCAGACGCGUUCACGUCGCGGCCCCUGUCAGAUUCUGGUGAAUCUGCGAAUUCUGCCGU [A16C U67C], the self-cleavage turned out to be 0.289. The figure for GGGGGCCACAGCAGAGGCGUUCACGUCGCGGCCCCUGUCAGAUUCUGGUGAAUCUGCGAAUUCUGAUGU [A16G C66A] is 0.579. Consider GGGGGCCACAGCAGACGCGUUCACGUCGCGGCCCCUGUCAGAUUCUGGUGAAUCUGCGAAUUCUGCUGC [A16C U69C], for which the self-cleavage was 0.82. The figure for GGGGGCCACAGCAGACGCGUUCACGUCGCGGCCCCUGUCAGAUUCUGGUGAAUCUGCGACUUCUGCUGU [A16C A60C] is 0.215; for GGGGGCCACAGCAGACGCGUUCACGUCGCGGCCCCUGUCAGAUUCUGGUGAAUCUGCGAAUUCUCCUGU [A16C G65C] it is 0.174. The figure for GGGGGCCACAGCAGAGGCGUUCACGUCGCGGCCCCUGUCAGAUUCUGGUGAAUCUGCGAGUUCUGCUGU [A16G A60G] is 0.663; for GGGGGCCACAGCAGACGCGUUCACGUCGCGGCCCCUGUCAGAUUCCGGUGAAUCUGCGAAUUCUGCUGU [A16C U46C] it is 0.293; for GGGGGCCACAGCAGACGCGUUCACGUCGCGGCCCCUGUCAGAUUCGGGUGAAUCUGCGAAUUCUGCUGU [A16C U46G] it is 0.309. The figure for GGGGGCCACAGCAGAGGCGUUCACGUCGCGGCCCAUGUCAGAUUCUGGUGAAUCUGCGAAUUCUGCUGU [A16G C35A] is 0.179.

In the case of GGGGGCCACAGCAGAGGCGUUCACGUCGCGGCCCGUGUCAGAUUCUGGUGAAUCUGCGAAUUCUGCUGU [A16G C35G], the self-cleavage worked out at 0.373. Regarding GGGGGCCACAGCAGACGCGUUCACGUCGCGGCCCCUGUUAGAUUCUGGUGAAUCUGCGAAUUCUGCUGU [A16C C39U], the self-cleavage is 0.184. The figure for GGGGGCCACAGCAGACGCGUUCACGUCGCGGCCCCUGUGAGAUUCUGGUGAAUCUGCGAAUUCUGCUGU [A16C C39G] is 0.151; for GGGGGCCACAGCAGACGCGUUCACGUCGCGGCCCCUGUCAGAUUCUGGUGAAUCUGCGAAUUCAGCUGU [A16C U64A] it is 0.0981. Turning to GGGGGCCACAGCAGACGCGUUCACGUCGCGGCCCCUGUCAGAUUCUGGUGAAUCUGCGAAUUCCGCUGU [A16C U64C], the self-cleavage is 0.145. The value for GGGGGCCACAGCAGACGCGUUCACGUCGCGGCCCCUGUCAGAUUCUGGUGAAUCUGAGAAUUCUGCUGU [A16C C57A] was 0.129; that for GGGGGCCACAGCAGACGCGUUCACGUCGCGGCCCCUGUCAGAUUCUGGUGAAUCUGGGAAUUCUGCUGU [A16C C57G] was 0.0856; that for GGGGGCCACAGCAGACGCGUUCACGUCGCGGCUCCUGUCAGAUUCUGGUGAAUCUGCGAAUUCUGCUGU [A16C C33U] was 0.261.

In the case of GGGGGCCACAGCAGACGCGUUUACGUCGCGGCCCCUGUCAGAUUCUGGUGAAUCUGCGAAUUCUGCUGU [A16C C22U], the self-cleavage was 0.0688. Regarding GGGGGCCACAGCAGAGGCGUUCACGUCGCGGACCCUGUCAGAUUCUGGUGAAUCUGCGAAUUCUGCUGU [A16G C32A], the self-cleavage is 0.607. The figure for GGGGGCCACAGCAGAGGCGUUCACGUCGCGGGCCCUGUCAGAUUCUGGUGAAUCUGCGAAUUCUGCUGU [A16G C32G] is 0.125. As for GGGGGCCACAGCAGACGCGUUCACGUCGCGGCCCCUGUCAGAUUCUGGUGAAUCUACGAAUUCUGCUGU [A16C G56A], the self-cleavage is 0.231. The value for GGGGGCCACAGCAGACGCGUUCACGUCGCGGCCCCUGUCAGAUUCUGGUGAAUCUCCGAAUUCUGCUGU [A16C G56C] was 0.131.

Take GGGGGCCACAGCAGACGCGUUCACGUCGCGGCCCCUGUCAGAUUCUUGUGAAUCUGCGAAUUCUGCUGU [A16C G47U]: the self-cleavage turned out to be 0.427.

As for GGGGGCCACAGCAGACGCGUUCACCUCGCGGCCCCUGUCAGAUUCUGGUGAAUCUGCGAAUUCUGCUGU [A16C G25C], the self-cleavage worked out at 0.0921.

Take GGGGGCCACAGCAGAGGCGUUCACGUCGCGGCCCCUGUCAGAUUCUGGUGAAUCUGCGUAUUCUGCUGU [A16G A59U]: the self-cleavage is 0.535.
